First the molecules themselves.
T1: His-Avi-tagged β1A-integrin tail, biotinylated (UniProt P05556-1 752-798, biotin (biotinylated tails, held on NeutrAvidin))
T1 chain (looked up): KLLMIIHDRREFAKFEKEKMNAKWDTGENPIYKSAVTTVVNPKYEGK

T2: His-Avi-tagged β3-integrin tail, biotinylated (UniProt P05106 742-788, biotin (biotinylated tails, held on NeutrAvidin))
T2 chain (looked up): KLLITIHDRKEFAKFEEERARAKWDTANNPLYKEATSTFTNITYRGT

B1: chicken vinculin domain 1 (residues 1-258) (domain or fragment, UniProt P12003 1-258, looked up)
chain: MPVFHTRTIESILEPVAQQISHLVIMHEEGEVDGKAIPDLTAPVSAVQAAVSNLVRVGKETVQTTEDQILKRDMPPAFIKVENACTKLVRAAQMLQADPYSVPARDYLIDGSRGILSGTSDLLLTFDEAEVRKIIRVCKGILEYLTVAEVVETMEDLVTYTKNLGPGMTKMAKMIDERQQELTHQEHRVMLVNSMNTVKELLPVLISAMKIFVTTKNTKSQGIEEALKNRNFTVEKMSAEINEIIRVLQLTSWDEDAW
B2: talin IBS2 polypeptide (residues 1974-2293), His/V5-tagged (domain or fragment, mouse, UniProt P26039 1974-2293, looked up)
chain: GTQACITAASAVSGIIADLDTTIMFATAGTLNREGAETFADHREGILKTAKVLVEDTKVLVQNAAGSQEKLAQAAQSSVATITRLADVVKLGAASLGAEDPETQVVLINAVKDVAKALGDLISATKAAAGKVGDDPAVWQLKNSAKVMVTNVTSLLKTVKAVEDEATKGTRALEATTEHIRQELAVFCSPEPPAKTSTPEDFIRMTKGITMATAKAVAAGNSCRQEDVIATANLSRRAIADMLRACKEAAFHPEVAPDVRLRALHYGRECANGYLELLDHVLLTLQKPNPDLKQQLTGHSKRVAGSVTELIQAAEAMKGT
B3: IBS2: recombinant murine talin residues 1974-2293, two five-helix bundles, integrin-binding site 2 (protein)
chain: B2 chain
modifications: left off: His tag, N-terminal, kept | V5 epitope, N-terminal, kept
B4: talin IBS2-B (residues 2137-2293), His/V5-tagged (domain or fragment, mouse, UniProt P26039 2137-2293, looked up)
chain: DEATKGTRALEATTEHIRQELAVFCSPEPPAKTSTPEDFIRMTKGITMATAKAVAAGNSCRQEDVIATANLSRRAIADMLRACKEAAFHPEVAPDVRLRALHYGRECANGYLELLDHVLLTLQKPNPDLKQQLTGHSKRVAGSVTELIQAAEAMKGT
B5: talin rod polypeptide 1974-2541 (domain or fragment, UniProt P26039 1974-2541, looked up)
chain: GTQACITAASAVSGIIADLDTTIMFATAGTLNREGAETFADHREGILKTAKVLVEDTKVLVQNAAGSQEKLAQAAQSSVATITRLADVVKLGAASLGAEDPETQVVLINAVKDVAKALGDLISATKAAAGKVGDDPAVWQLKNSAKVMVTNVTSLLKTVKAVEDEATKGTRALEATTEHIRQELAVFCSPEPPAKTSTPEDFIRMTKGITMATAKAVAAGNSCRQEDVIATANLSRRAIADMLRACKEAAFHPEVAPDVRLRALHYGRECANGYLELLDHVLLTLQKPNPDLKQQLTGHSKRVAGSVTELIQAAEAMKGTEWVDPEDPTVIAENELLGAAAAIEAAAKKLEQLKPRAKPKEADESLNFEEQILEAAKSIAAATSALVKAASAAQRELVAQGKVGAIPANALDDGQWSQGLISAARMVAAATNNLCEAANAAVQGHASQEKLISSAKQVAASTAQLLVACKVKADQDSEAMKRLQAAGNAVKRASDNLVKAAQKAAAFEDQENETVVVKEKMVGGIAQIIAAQEEMLRKERELEEARKKLAQIRQQQYKFLPSELRDEH
B6: talin IBS2-A (residues 1974-2140), His/V5-tagged (domain or fragment, mouse, UniProt P26039 1974-2140, looked up)
chain: GTQACITAASAVSGIIADLDTTIMFATAGTLNREGAETFADHREGILKTAKVLVEDTKVLVQNAAGSQEKLAQAAQSSVATITRLADVVKLGAASLGAEDPETQVVLINAVKDVAKALGDLISATKAAAGKVGDDPAVWQLKNSAKVMVTNVTSLLKTVKAVEDEAT
B7: talin IBS2-A (residues 1974-2140), His tag removed (domain or fragment, mouse, UniProt P26039 1974-2140, looked up)
chain: B6 chain

For experiment [1], the target named is T3, talin IBS2 polypeptide (residues 1974-2293), His tag removed (mouse, UniProt P26039 1974-2293). Kind of experiment: SEC. (In general: In gel filtration, larger molecules generally elute earlier.)
Experiment [2] has as its target T1, His-Avi-tagged β1A-integrin tail, …. Kind of experiment: ELISA. Background: In an ELISA, binding on a coated surface is turned into a signal by an enzyme label.
Experiment [3] concerns the target T2, His-Avi-tagged β3-integrin tail, …. Kind of experiment: ELISA.
For experiment [4], the system named is β3-integrin tail. Kind of experiment: ELISA-type binding of talin polypeptides to immobilized β3-integrin tails.
Experiment [5] addresses T3, talin IBS2 polypeptide (residues …). Kind of experiment: NMR titration.
The target in experiment [6] is B1. Kind of experiment: SEC.

Bounds are passed on as bounds.

As a reminder, the EC50 is the midpoint of the concentration-response curve. A low value points to higher potency in that assay.

B1: the binding result in experiment [1] is “binds”.
Regarding B2, the EC50 in experiment [2] worked out at 900 ± 100 nM; in experiment [3], 900 ± 200 nM.
For the molecule B3, in experiment [4], the “affinity for β-integrin tails, fold weaker than binding by the talin FERM domain” value was around 2 fold.
Take B4: the EC50 in experiment [3] is above 2500 nM.
B5: the EC50 in experiment [3] was above 2500 nM.
Regarding KLLITIHDRKEFAKFEEERARAKWDTANNPLYKEATSTFTNITYRGT (peptide, UniProt P05106 742-788, looked up) [full-length β3-integrin tail peptide (residues 716-762)], the binding result in experiment [5] was “binds”.
In the case of B6, the EC50 in experiment [3] is above 2500 nM.
For the molecule B7, the binding result in experiment [6] is reported as “binds”.

The values are drawn from article PMC2659244 (The Journal of Biological Chemistry, 2009).
